For assay [1], the target named is T1, PtMCM (Picrophilus oshimae, UniProt A0A8G2FX57, K337A).
T1 construct: gene SAMN02745355_1050; full length, N-terminal 6xHis and C-terminal Strep-tag kept; E. coli BL21 Codon Plus; tagged monomer 81 kDa (untagged ~76 kDa); homohexamer
As to the kind of experiment: ATP hydrolysis, gamma-32P ATP tracer, TLC. Format: biochemical. The note with it: pH 6.0, 55 °C, 10 or 100 uM ATP, no DNA, 800 nM protein, 60 min; Walker A mutant.

The target of assay [2] is His-PtMCM-Strep (Picrophilus torridus MCM, recombinant) (Picrophilus torridus).
Assay [3] shares this target. The source holds these as a separate data set.
For assay [4] the target is unchanged. This is another data set of the same source.
The target of assay [5] is His-PtGINS (Picrophilus torridus GINS, recombinant) (Picrophilus torridus). As to the kind of experiment: SEC; Superdex 200 10/300 GL calibrated with protein standards, 50 mM potassium phosphate pH 7.4, 150 mM NaCl; molecular weight from retention volume; PtMCM 400 ug, profile unchanged over 1.5 to 5 uM protein.
The target in assay [6] is His-PtMCM-Strep (Picrophilus torridus MCM, recombinant) (Picrophilus torridus). The assay is described as above.

Some results are limits rather than exact numbers.

T1 sequence (A0A8G2FX57 entry or part of it K337A): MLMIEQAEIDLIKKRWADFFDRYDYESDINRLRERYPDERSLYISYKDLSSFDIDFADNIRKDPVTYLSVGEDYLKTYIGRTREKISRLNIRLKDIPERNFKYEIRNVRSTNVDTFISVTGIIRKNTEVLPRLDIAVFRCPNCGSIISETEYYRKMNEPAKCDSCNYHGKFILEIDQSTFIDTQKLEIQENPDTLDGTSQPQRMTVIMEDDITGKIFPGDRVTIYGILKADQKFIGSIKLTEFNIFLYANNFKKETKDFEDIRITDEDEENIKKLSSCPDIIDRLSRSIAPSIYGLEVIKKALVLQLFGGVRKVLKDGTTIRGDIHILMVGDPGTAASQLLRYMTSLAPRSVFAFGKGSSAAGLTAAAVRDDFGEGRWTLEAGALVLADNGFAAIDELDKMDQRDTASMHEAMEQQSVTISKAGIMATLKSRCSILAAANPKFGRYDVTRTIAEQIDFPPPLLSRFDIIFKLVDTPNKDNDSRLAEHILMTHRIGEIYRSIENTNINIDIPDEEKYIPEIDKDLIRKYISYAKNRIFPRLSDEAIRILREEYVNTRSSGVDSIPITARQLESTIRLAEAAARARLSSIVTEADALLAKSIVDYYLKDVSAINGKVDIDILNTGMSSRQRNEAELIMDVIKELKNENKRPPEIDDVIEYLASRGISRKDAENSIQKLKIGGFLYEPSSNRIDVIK

With `Nc1ncnc2c1ncn2[C@@H]1O[C@H](COP(=O)(O)OP(=O)(O)OP(=O)(O)O)[C@@H](O)[C@H]1O` [ATP], the “ATP hydrolysis, gamma-32P ATP tracer, TLC” value in assay [1] is reported as “ATPase activity was drastically diminished in case of the mutant PtMCM-K337A”.

On to “His-PtGINS (Picrophilus torridus GINS, recombinant) (natural protein)”, for which the MCM ATP hydrolysis with 100 uM ATP, 500 nM PtMCM and 3000 nM PtGINS, pH 3-7, with or without DNA, 60 min; fold increase with GINS at lower pH (no effect at pH 5-7) in assay [2] was found to be 2 fold. Further, the ATP hydrolysed during the helicase reaction at pH 4, 5 mM ATP, 500 nM PtMCM and 3000 nM PtGINS, 60 min; fold stimulation by GINS in assay [3] was > 50 fold. The ATP hydrolysed during the helicase reaction at pH 6, 3-5 mM ATP, 500 nM PtMCM and 3000 nM PtGINS, 60 min; fold stimulation by GINS in assay [4] came to 2 fold. In addition, in assay [5], the stoichiometry N (in general, the number of molecules, sites or subunits per partner or assembly) stood at 4.

Regarding “His-PtMCM-Strep (Picrophilus torridus MCM, recombinant) (enzyme)”, the stoichiometry N in assay [6] was determined as 6.
